Square brackets hold non-standard residues; d marks the D form. Ends that are not written are not given here. Peptide text beside a SMILES is read from it. * marks the point of attachment. X1 = CN(C)c1ccc2c(-c3ccc(C(=O)NCCCCCN4C(=O)CC(*)C4=O)cc3C(=O)[O-])c3ccc(=[N+](C)C)cc-3oc2c1; pY = N[C@@H](Cc1ccc(OP(=O)(O)O)cc1)C(=O)O
Experiments:
ZAP-70 = molecular target: T1, ZAP-70 (Homo sapiens, UniProt P43403); test: TR-FRET ZAP-70:2pY binding / inhibition assay; settings: read-out: KD, ZAP-70 binding to AlexaFluor488-2pY
T1 sequence (P43403 1-606): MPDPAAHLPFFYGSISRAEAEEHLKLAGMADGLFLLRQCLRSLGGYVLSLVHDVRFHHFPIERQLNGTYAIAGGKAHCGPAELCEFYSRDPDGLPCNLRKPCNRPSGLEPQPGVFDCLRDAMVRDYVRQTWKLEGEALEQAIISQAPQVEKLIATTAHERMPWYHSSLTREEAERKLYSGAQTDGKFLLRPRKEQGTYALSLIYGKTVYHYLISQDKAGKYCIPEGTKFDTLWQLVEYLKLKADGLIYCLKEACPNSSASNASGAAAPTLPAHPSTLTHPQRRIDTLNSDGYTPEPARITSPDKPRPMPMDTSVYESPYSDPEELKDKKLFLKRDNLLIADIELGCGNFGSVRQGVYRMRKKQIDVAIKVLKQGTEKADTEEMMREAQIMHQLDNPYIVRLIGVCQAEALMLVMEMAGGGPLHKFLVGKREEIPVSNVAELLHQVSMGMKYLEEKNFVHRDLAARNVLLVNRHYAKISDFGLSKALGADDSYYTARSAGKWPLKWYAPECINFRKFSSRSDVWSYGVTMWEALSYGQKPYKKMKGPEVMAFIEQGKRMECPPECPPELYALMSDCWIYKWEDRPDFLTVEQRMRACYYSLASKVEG

[1] = molecular target: T2, isolated tandem SH2 domains of ZAP-70 (Homo sapiens, UniProt P43403); test: Fluorescence polarization assay with the isolated tandem SH2 unit; format: binding; settings: data not shown
T2 sequence (P43403 1-259 limits assumed): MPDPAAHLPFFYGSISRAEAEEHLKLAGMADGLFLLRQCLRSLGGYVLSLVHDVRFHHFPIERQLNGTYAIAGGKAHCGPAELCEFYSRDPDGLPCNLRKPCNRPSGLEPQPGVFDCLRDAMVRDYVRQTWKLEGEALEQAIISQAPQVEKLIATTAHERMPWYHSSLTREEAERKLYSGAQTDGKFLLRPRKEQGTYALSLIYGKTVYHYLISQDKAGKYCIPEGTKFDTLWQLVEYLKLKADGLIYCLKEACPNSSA

ZAP-Src chimera = test: Fluorescence polarization 2pY binding to ZAP-Src chimera; settings: read-out: binding constant for 2pY peptide and the ZAP-Src chimera; FP, TAMRA-2pY
[2] = molecular target: 2pY ITAM peptide ITAM (Homo sapiens) (UniProt P20963); settings: cited from earlier work
[3] = molecular target: T3, ZAP-70 (zeta-associated protein of 70 kDa), construct spanning residues 1-606, wild type (UniProt P43403 1-606); test: fluorescence polarisation
T3 sequence (looked up): T1 sequence (P43403 1-606)

ZAP-70 Y315F/Y319F = molecular target: T4, ZAP-70 Y315F/Y319F (UniProt P43403 1-619, Y315F | Y319F); test: fluorescence polarisation
T4 sequence (looked up): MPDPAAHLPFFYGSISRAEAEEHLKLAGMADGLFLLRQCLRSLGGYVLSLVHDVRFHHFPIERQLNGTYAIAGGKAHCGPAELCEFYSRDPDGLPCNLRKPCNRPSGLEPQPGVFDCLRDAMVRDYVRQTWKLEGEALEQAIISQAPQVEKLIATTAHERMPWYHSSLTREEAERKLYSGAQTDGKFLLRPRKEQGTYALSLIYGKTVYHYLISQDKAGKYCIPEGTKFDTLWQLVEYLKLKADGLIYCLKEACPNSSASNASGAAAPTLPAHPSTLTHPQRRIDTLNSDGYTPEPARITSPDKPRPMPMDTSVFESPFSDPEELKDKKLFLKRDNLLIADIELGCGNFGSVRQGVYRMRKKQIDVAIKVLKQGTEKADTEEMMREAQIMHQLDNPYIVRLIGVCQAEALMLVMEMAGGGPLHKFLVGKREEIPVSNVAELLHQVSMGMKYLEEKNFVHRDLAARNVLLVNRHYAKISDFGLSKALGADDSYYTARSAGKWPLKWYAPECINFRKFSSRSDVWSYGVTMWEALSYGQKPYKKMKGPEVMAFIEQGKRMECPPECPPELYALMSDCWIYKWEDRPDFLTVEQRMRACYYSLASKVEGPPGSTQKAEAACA

ZAP-70 (from UniProt P43403), sequence (P43403 whole entry): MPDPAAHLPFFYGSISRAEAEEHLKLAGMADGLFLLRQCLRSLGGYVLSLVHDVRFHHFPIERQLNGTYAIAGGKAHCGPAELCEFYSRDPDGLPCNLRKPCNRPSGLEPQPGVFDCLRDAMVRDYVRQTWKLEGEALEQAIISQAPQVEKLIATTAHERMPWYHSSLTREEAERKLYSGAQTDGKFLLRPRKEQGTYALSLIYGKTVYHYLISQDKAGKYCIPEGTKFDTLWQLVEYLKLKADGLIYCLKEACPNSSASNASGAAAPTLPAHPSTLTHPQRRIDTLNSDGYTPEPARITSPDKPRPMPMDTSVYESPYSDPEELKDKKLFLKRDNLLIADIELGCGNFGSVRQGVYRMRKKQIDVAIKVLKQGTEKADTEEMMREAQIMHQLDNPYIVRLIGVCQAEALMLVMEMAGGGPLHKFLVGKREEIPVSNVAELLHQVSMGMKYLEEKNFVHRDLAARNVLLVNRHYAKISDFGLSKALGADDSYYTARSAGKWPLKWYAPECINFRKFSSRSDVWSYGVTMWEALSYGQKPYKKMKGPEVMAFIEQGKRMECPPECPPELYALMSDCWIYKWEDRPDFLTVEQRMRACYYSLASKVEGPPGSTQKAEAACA

For “2pY: fluorescently labeled doubly phosphorylated ITAM peptide of the ζ chain (CGNQLpYNELNLGRREEpYDVLD) (C(TAMRA C5 maleimide)GNQL[pY]NELNLGRREE[pY]DVLD)”, the Kd (ZAP-70) was 55.4 ± 7.1 nM and the “dissociation constant, tandem SH2 unit and 2pY peptide” value [1] was “nearly identical to the Src-ZAP fusion protein”.

For CC(C)C[C@H](NC(=O)[C@H](CC(N)=O)NC(=O)[C@H](CC(C)C)NC(=O)[C@H](CCC(=O)O)NC(=O)[C@H](CC(N)=O)NC(=O)[C@H](Cc1ccc(OP(=O)(O)O)cc1)NC(=O)[C@H](CC(C)C)NC(=O)[C@H](CCC(N)=O)NC(=O)[C@H](CC(N)=O)NC(=O)CNC(=O)[C@@H](N)CSC1CC(=O)N(CCCCCNC(=O)c2ccc(-c3c4ccc(=[N+](C)C)cc-4oc4cc(N(C)C)ccc34)c(C(=O)[O-])c2)C1=O)C(=O)NCC(=O)N[C@@H](CCCNC(=N)N)C(=O)N[C@@H](CCCNC(=N)N)C(=O)N[C@@H](CCC(=O)O)C(=O)N[C@@H](CCC(=O)O)C(=O)N[C@@H](Cc1ccc(OP(=O)(O)O)cc1)C(=O)N[C@@H](CC(=O)O)C(=O)N[C@H](C(=O)N[C@@H](CC(C)C)C(=O)N[C@@H](CC(=O)O)C(=O)O)C(C)C (stereo partly drawn) [TAMRA-2pY] (H-C(X1)GNQL[pY]NELNLGRREE[pY]DVLD-OH; N-terminus and C-terminus assumed), the Kd (ZAP-Src chimera) was 15.8 ± 1.3 nM.

In the case of ZAP-70 (from UniProt P43403), the Kd [2] is listed as 76.6 nM.

C(TAMRA C5 maleimide)GNQL[pY]NELNLGRREE[pY]DVLD showed a Kd [3] of 45.7 ± 4.7 nM and a Kd (ZAP-70 Y315F/Y319F) of 82.2 ± 5.6 nM.

Source: paper PMC5491343 (SLAS discovery, 2016)
